Experimental findings from PMC3158066, “An Inserted α/β Subdomain Shapes the Catalytic Pocket of Lactobacillus johnsonii Cinnamoyl Esterase” (PLoS ONE, 2011) are described below.

Data set [1] deals with T1, LJ0536 (cinnamoyl esterase) (Lactobacillus johnsonii, UniProt D3YEX6, S106A).
T1 construct: gene FEE39_08260; full length in p15TV-L, E. coli BL21(DE3); His6-tag removed by TEV for kinetics; crystals: tag uncleaved, protease-treated (subtilisin or V8), residues 1-245 modelled, four C-terminal residues lost
As to the kind of experiment: X-ray crystallography, co-crystal. It is filed as binding. Conditions: 0.1 M Tris pH 8.5, active site.

Data set [2] concerns the molecule itself. The data set is described as follows: crystal structure; sitting drop, protein at 15 mg/mL with His6-tag uncleaved, pre-treated with subtilisin (apo) or V8 protease (S106A); S106A co-crystallised with ethyl ferulate.
Substrate in data set [3]: CCCC(=O)Oc1ccc([N+](=O)[O-])cc1
As to the kind of experiment: purified protein. It is filed as biochemical, Lactobacillus johnsonii. Conditions: HEPES pH 7.80, 25 °C (typical assay; saturation conditions as in ref 14), pH 7.8.

Data set [4] concerns the molecule itself. As to the kind of experiment: SEC; gel filtration on Superose 12 10/300GL (FPLC), mobile phase 10 mM HEPES with 150 mM NaCl, calibrated with molecular weight standards. A general note: In gel filtration, larger molecules generally elute earlier.
Setting [5] is: deletion made by ligation at a SmaI junction.

For `CCOC(=O)/C=C/c1ccc(O)c(OC)c1` [ethyl ferulate], the “X-ray crystallography, co-crystal” value in data set [1] (Form I (5 mM ligand, 1.58 Å, 3PFB) and Form II (25 mM ligand, 1.82 Å, 3QM1)) is on record as “The Ser106Ala-ethyl ferulate complex crystallized in two forms”.
For `COc1cc(/C=C/C(=O)O)ccc1O` [ferulic acid], in data set [1] (5 mM ligand, 1.75 Å), the “X-ray crystallography, co-crystal” value was “co-crystallized this mutant with ferulic acid, ethyl ferulate, or chlorogenic acid”.

B1: apo-LJ0536 (wild type), as crystallised after treatment with subtilisin (enzyme, Lactobacillus johnsonii N6.2, UniProt D3YEX6 1-245, looked up)
chain: MATITLERDGLQLVGTREEPFGEIYDMAIIFHGFTANRNTSLLREIANSLRDENIASVRFDFNGHGDSDGKFENMTVLNEIEDANAILNYVKTDPHVRNIYLVGHSQGGVVASMLAGLYPDLIKKVVLLAPAATLKGDALEGNTQGVTYNPDHIPDRLPFKDLTLGGFYLRIAQQLPIYEVSAQFTKPVCLIHGTDDTVVSPNASKKYDQIYQNSTLHLIEGADHCFSDSYQKNAVNLTTDFLQN
notes: LJ0536, serine cinnamoyl esterase, Lactobacillus johnsonii N6.2; residues 1-245 seen in the map, four C-terminal residues lost to the protease, plus five residues of the expression tag; Crystallised with the His6 tag uncleaved, but only five residues of the expression tag are seen after the protease treatment; also called apo WT LJ0536; not shown: His6, N-terminal, kept
On to B1, for which, in data set [2], the binding result is “binds”.

B2: LJ0536 (cinnamoyl esterase) (Lactobacillus johnsonii; DEL147-173) (protein)
chain: MATITLERDGLQLVGTREEPFGEIYDMAIIFHGFTANRNTSLLREIANSLRDENIASVRFDFNGHGDSDGKFENMTVLNEIEDANAILNYVKTDPHVRNIYLVGHSQGGVVASMLAGLYPDLIKKVVLLAPAATLKGDALEGNTQGQQLPIYEVSAQFTKPVCLIHGTDDTVVSPNASKKYDQIYQNSTLHLIEGADHCFSDSYQKNAVNLTTDFLQNNNAF
notes: full length in p15TV-L, E. coli BL21(DE3); His6-tag removed by TEV for kinetics; crystals: tag uncleaved, protease-treated (subtilisin or V8), residues 1-245 modelled, four C-terminal residues lost
As for B2, in data set [3] (setting [5]), the Km – broadly, the substrate concentration at which the rate is half of its maximum – was 650 ± 120 µM; the Vmax (in general, the rate approached at saturating substrate) stood at 0.28 µmol/min/mg; the kcat (in general, the number of substrate molecules converted per active site and unit of time at saturation) was 0.13 s⁻¹; the kcat/Km (usually the second-order rate constant that governs catalysis at low substrate concentration) came out at 198 M⁻¹ s⁻¹.

B3: LJ0536 (cinnamoyl esterase) (Lactobacillus johnsonii; H225A) (protein)
chain: MATITLERDGLQLVGTREEPFGEIYDMAIIFHGFTANRNTSLLREIANSLRDENIASVRFDFNGHGDSDGKFENMTVLNEIEDANAILNYVKTDPHVRNIYLVGHSQGGVVASMLAGLYPDLIKKVVLLAPAATLKGDALEGNTQGVTYNPDHIPDRLPFKDLTLGGFYLRIAQQLPIYEVSAQFTKPVCLIHGTDDTVVSPNASKKYDQIYQNSTLHLIEGADACFSDSYQKNAVNLTTDFLQNNNAF
notes: as for B2
B3: in data set [3], the Michaelis constant (Km) amounted to 190 ± 40 µM, the Vmax came out at 0.65 µmol/min/mg, the kcat is 0.3 s⁻¹ and the kcat/Km was 1570 M⁻¹ s⁻¹.

B4: LJ0536 (cinnamoyl esterase) (Lactobacillus johnsonii; Q145A) (protein)
chain: MATITLERDGLQLVGTREEPFGEIYDMAIIFHGFTANRNTSLLREIANSLRDENIASVRFDFNGHGDSDGKFENMTVLNEIEDANAILNYVKTDPHVRNIYLVGHSQGGVVASMLAGLYPDLIKKVVLLAPAATLKGDALEGNTAGVTYNPDHIPDRLPFKDLTLGGFYLRIAQQLPIYEVSAQFTKPVCLIHGTDDTVVSPNASKKYDQIYQNSTLHLIEGADHCFSDSYQKNAVNLTTDFLQNNNAF
notes: as for B2
Take B4: in data set [3], the Km is 290 ± 40 µM, the maximum rate (Vmax) is 2.05 µmol/min/mg, the kcat came out at 0.94 s⁻¹ and the kcat/Km came out at 3250 M⁻¹ s⁻¹.

B5: LJ0536 Ser106Ala mutant, as crystallised after treatment with V8 protease (enzyme, Lactobacillus johnsonii N6.2)
chain: MATITLERDGLQLVGTREEPFGEIYDMAIIFHGFTANRNTSLLREIANSLRDENIASVRFDFNGHGDSDGKFENMTVLNEIEDANAILNYVKTDPHVRNIYLVGHAQGGVVASMLAGLYPDLIKKVVLLAPAATLKGDALEGNTQGVTYNPDHIPDRLPFKDLTLGGFYLRIAQQLPIYEVSAQFTKPVCLIHGTDDTVVSPNASKKYDQIYQNSTLHLIEGADHCFSDSYQKNAVNLTTDFLQNNNAF
notes: made from the p15TV-L wild-type clone; also called LJ0536 S106A; S106A; not shown: His6, N-terminal, kept
Regarding B5, the binding result in data set [2] is “binds”.

B6: LJ0536, cinnamoyl esterase of Lactobacillus johnsonii N6.2 (wild type) (enzyme, UniProt D3YEX6 1-249, looked up)
chain: MATITLERDGLQLVGTREEPFGEIYDMAIIFHGFTANRNTSLLREIANSLRDENIASVRFDFNGHGDSDGKFENMTVLNEIEDANAILNYVKTDPHVRNIYLVGHSQGGVVASMLAGLYPDLIKKVVLLAPAATLKGDALEGNTQGVTYNPDHIPDRLPFKDLTLGGFYLRIAQQLPIYEVSAQFTKPVCLIHGTDDTVVSPNASKKYDQIYQNSTLHLIEGADHCFSDSYQKNAVNLTTDFLQNNNAF
notes: LJ0536, serine cinnamoyl esterase, Lactobacillus johnsonii N6.2; the crystallised fragment 1-245 is said to lack four C-terminal residues of the full-length protein; The protein as used for gel filtration; also called WT
On to B6, for which, in data set [4], the binding result is “binds”. For the same molecule, in data set [3], the Km was found to be 160 ± 20 µM, the Vmax came to 3.34 µmol/min/mg, the kcat is 1.53 s⁻¹ and the catalytic efficiency (kcat/Km) worked out at 9590 M⁻¹ s⁻¹.

B7: LJ0536 (cinnamoyl esterase) (Lactobacillus johnsonii; D138A) (protein)
chain: MATITLERDGLQLVGTREEPFGEIYDMAIIFHGFTANRNTSLLREIANSLRDENIASVRFDFNGHGDSDGKFENMTVLNEIEDANAILNYVKTDPHVRNIYLVGHSQGGVVASMLAGLYPDLIKKVVLLAPAATLKGAALEGNTQGVTYNPDHIPDRLPFKDLTLGGFYLRIAQQLPIYEVSAQFTKPVCLIHGTDDTVVSPNASKKYDQIYQNSTLHLIEGADHCFSDSYQKNAVNLTTDFLQNNNAF
notes: as for B2
Regarding B7, in data set [3], the Km was 220 ± 30 µM, the Vmax stood at 1.23 µmol/min/mg, the kcat turned out to be 0.57 s⁻¹ and the kcat/Km turned out to be 2570 M⁻¹ s⁻¹.

B8: LJ0536 (cinnamoyl esterase) (Lactobacillus johnsonii; H32A) (protein)
chain: MATITLERDGLQLVGTREEPFGEIYDMAIIFAGFTANRNTSLLREIANSLRDENIASVRFDFNGHGDSDGKFENMTVLNEIEDANAILNYVKTDPHVRNIYLVGHSQGGVVASMLAGLYPDLIKKVVLLAPAATLKGDALEGNTQGVTYNPDHIPDRLPFKDLTLGGFYLRIAQQLPIYEVSAQFTKPVCLIHGTDDTVVSPNASKKYDQIYQNSTLHLIEGADHCFSDSYQKNAVNLTTDFLQNNNAF
notes: as for B2
Regarding B8, in data set [3], the Km came to 130 ± 80 µM, the Vmax was determined as 0.09 µmol/min/mg, the kcat came out at 0.04 s⁻¹ and the catalytic efficiency (kcat/Km) is 318 M⁻¹ s⁻¹.

B9: LJ0536 (cinnamoyl esterase) (Lactobacillus johnsonii; S68A) (protein)
chain: MATITLERDGLQLVGTREEPFGEIYDMAIIFHGFTANRNTSLLREIANSLRDENIASVRFDFNGHGDADGKFENMTVLNEIEDANAILNYVKTDPHVRNIYLVGHSQGGVVASMLAGLYPDLIKKVVLLAPAATLKGDALEGNTQGVTYNPDHIPDRLPFKDLTLGGFYLRIAQQLPIYEVSAQFTKPVCLIHGTDDTVVSPNASKKYDQIYQNSTLHLIEGADHCFSDSYQKNAVNLTTDFLQNNNAF
notes: as for B2
B9: in data set [3], the Km is 80 ± 20 µM, the Vmax came out at 0.47 µmol/min/mg and the kcat turned out to be 0.22 s⁻¹.
